Tests used:
[1] = tested on: tracheal smooth muscle (TSM) of mouse tracheal rings; test: ISO-induced relaxation of CCh-contracted tracheal rings; assay type: cell-based; conditions: in either presence or absence of rFIZZ1
Method: (§1) Experimental animals were sacrificed by CO2 asphyxiation. Tracheas were surgically excised and cleaned of adherent connective tissue. Each trachea was sectioned into rings 3-4 mm in length and cultured in DMEM containing 1.0 M HEPES, 1.0 M NaOH, 5% of heat-inactivated FBS (Hy-Clone, Logan, Utah), 0.2M glutamine, 1.0 M CaCl2, 2.5 μg/ml fungizone, 5 μg/mL insulin, 100 U/mL penicillin and 100 μg/mL streptomycin) (DMEM-5%) for 24 hours. For in vitro experiments, the tracheal rings were cultured in DMEM in the absence and presence of either 10 or 100 nM recombinant FIZZ1 (Leinco Technologies, USA) for 24 hours.
(§2) Trachea were supported longitudinally by a plexiglas rod with a stainless steel pin into the base of a double-jacketed, glass organ bath filled with 10 mL of Krebs-Henseleit (K-H) solution (37° C.) of the following composition: 118 mM NaCl; 4.7 mM KCl; 1.2 mM KH2PO4; 11.1 mM Dextrose; 1.2 mM MgSO4; 2.8 mM CaCl2; and 25 mM NaHCO3. The solution was maintained at a pH of 7.40-7.45 and continuously gassed with a mixture of 5% CO2 and […] for the duration of each experiment. […] Initial tensions of TSM were set at approximately 0.5 g and maintained for 1 hour. Agonists were given after a steady state of tension had been reached.
[CCh]-response curves at the doses ranging from 3×10^−8 to 10^−5 M were completed in tracheal rings in absence and presence of either FIZZ1 or LPS (0.1 ng/mL). Concentrations of agonist were increased only when force responses to the previous concentration had stabilized. To examine TSM relaxant responses to isoprenaline (ISO), tracheal rings were first contracted by an addition of 1.0 μM CCh (Sigma, USA). Once the contraction had stabilized, ISO (Sigma, USA) was introduced into each bath at increasing concentrations (3×10^−8-10^−5 M). […]
(§3) At the end of each force measurement experiment, tracheas were blotted on a gauze pad and weighted. Results were calculated as milligram of tension per milligram of TSM weight (mg/mg) and expressed as an individual percentage (%) of 10 μM CCh- or 200 μM papaverine-induced tension response in PBS-treated trachea. […]

BAL cells [2] = test: Counts of BAL cells in intranasally challenged mice; assay type: in vivo, mouse; conditions: intranasal once a day×5 days, 100 nM rFIZZ1 or 0.1 ng/ml LPS; vs PBS-treated mice
Method: (§4) For some experiments, ex vivo TSM tensions of fresh tracheal rings and BAL cell counts were measured at 24 hours after the last treatment of mice receiving an intranasal dose of either PBS, 0.1 ng/m: LPS or 100 nM rFIZZ1 (once a day×5 days).
(§5) PBS- and OA-treated mice were sacrificed and their airways lavaged once with 1.0 mL of PBS via tracheal cannulation. An equal volume of BAL from each mouse was collected and centrifuged (1200 rpm, 5 min). Total BAL cells were counted using a hemocytometer. BAL cells ([…]) collected from each sample were applied to a glass slide using a cytospin (800 rpm, 8 min) and then the slide was stained with Hema 3 Stain Set (Fisher Scientific) for the differential count of cells. The relative proportion of different cells counted from 300 cells/slide was factored to the number of total BAL cells collected in each group.

[3] = tested on: airway epithelium of cultured trachea; test: Histological examination of tracheal rings and airway epithelium; assay type: cell-based, mouse; conditions: cultured overnight with FIZZ1 100 nM or LPS 0.1 ng/mL
Method: Histological examination of the structure of the airway and the status of the airway epithelial layer was performed in whole/sectional fresh trachea and as well as trachea cultured overnight with and without 100 nM FIZZ1. To understand the role of airway epithelium in regulating contractility of TSM, we measured the contractile response of tracheal rings after the epithelium was mechanically removed. Briefly, airway epithelial cells were removed by gently rubbing the intraluminal surface with polyethylene tubing (Becton Dickinson & Company, MD USA) connected to a Precision Glide needle (30G1/2) followed by perfusion with 1.0 ml air bubbles and then 1.0 ml K-H solution (re). All of the experimental tracheas were stained with H & E solution (CAT hematoxylin, Edgar Degas Eosin Working Solution, Biocare Medical, Concord, Calif.) and photographed under a light microscope at ×4.0 and ×20 magnification. Tracheal morphometric analysis was performed using a computer-based image analysis system consisting of a Nikon Eclipse E800 microscope (Melville, N.Y. USA) with a SPOT RT Slider camera (Diagnostic Instruments, Inc., Sterling Heights, Mich. USA).

[4] = tested on: mouse tracheal epithelium cells (MTEC); test: Nitrite in MTEC supernatants, Griess reaction; assay type: cell-based; conditions: PBS, 0.1 ng/mL LPS or 100 nM rFIZZ1; any measured time point; N=3
Method: MTEC culture was performed by following the protocol of You et al. (“Growth and differentiation of mouse tracheal epithelial cells: selection of a proliferative population,” Am J Physiol Lung Cell Mol Physiol, 2002, 283:L 1315-1321) with minor modification. Briefly, tracheas were incubated in 1.5 mg/mL pronase (Roche Molecular Biochemicals) for 18 h at 4° C. Cells were treated with 0.5 mg/mL crude pancreatic DNase I (Sigma-Aldrich) on ice for 5 min. After incubation in tissue culture plates for 3-4 h in 5% CO2 at 37° C., nonadherent cells were incubated in a plate coated with type I rat tail collagen (BD Biosciences) in modified BEBM (Lonza, Md. USA) containing 10 μg/ml insulin, 5 μg/ml transferrin, 25 ng/ml epidermal growth factor, 5 μg/ml epinephrine and 30 μg/ml bovine pituitary extract, 0.5 nM Hydrocortisone, 25 ng/ml hEGF, 15 nM Triiodothyronine, 0.25 μg/ml Gentamicin/amphotericin-B and 0.01 μM retinoic acid in 5% CO2 at 37° C. […]
Nitric oxide (NO) was examined by measuring an end product, nitrite, using the Griess reaction (Xu et al., “Arginase and autoimmune inflammation in the central nervous system,” Immunology, 2003; 110:141-148). […] Absorbance was read at 540 nm in an automated microplate reader. […]

[5] = tested on: tracheal smooth muscle (TSM) of mouse tracheal rings; test: CCh-evoked force generation in cultured tracheal rings; assay type: cell-based; conditions: FIG. 4B, 100 nM heat-inactivated or native rFIZZ1, 0.1 ng/mL LPS, PBS 100±4.82, n=6
Method: as §1, §2
[CCh]-response curves at the doses ranging from 3×10^−8 to 10^−5 M were completed in tracheal rings in absence and presence of either FIZZ1 or LPS (0.1 ng/mL). Concentrations of agonist were increased only when force responses to the previous concentration had stabilized. To examine TSM relaxant responses to isoprenaline (ISO), tracheal rings were first contracted by an addition of 1.0 μM CCh (Sigma, USA). Once the contraction had stabilized, ISO (Sigma, USA) was introduced into each bath at increasing concentrations (3×10^−8-10^−5 M). […] In an additional experiment, the effect of FIZZ1 protein on the CCh-mediated force response was verified using 100 nM heat-inactivated FIZZ1 (natural and recombinant FIZZ1 solution heated at 70° C. for 60 min). Their dose-response curves were obtained as above. Fresh drug solutions such as CCh and ISO were made up on the day of the experiment. Doses of the above agents refer to the final bath concentration.
(§6) At the end of each force measurement experiment, tracheas were blotted on a gauze pad and weighted. Results were calculated as milligram of tension per milligram of TSM weight (mg/mg) and expressed as an individual percentage (%) of 10 μM CCh- or 200 μM papaverine-induced tension response in PBS-treated trachea. For the control group, CCh (papaverine)-mediated responses were normalized to the mean value of the maximal responses.

[6] = tested on: TSM of fresh tracheal rings; test: Force response of fresh tracheas from intranasally challenged mice; assay type: in vivo, mouse; conditions: intranasal once a day×5 days, 100 nM rFIZZ1 or 0.1 ng/ml LPS; 24 hours after last treatment; PBS 100.00±14.63; N=5
Method: as §4, §2, §6

FIZZ1 protein = FIZZ1 protein in BAL by Western blot; assay type: in vivo, mouse; conditions: OA/OA-treated mice
Method: (§7) Animals were divided into three groups including phosphate buffered saline (PBS)-sensitized and -challenged (PBS/PBS), OA-sensitized and PBS-challenged (OA/PBS), and OA-sensitized and -challenged mice (OA/OA). Mice were intraperitoneally injected with an equivalent volume (100 μL) of PBS or OA (20 μg) with 2.25 mg Al(OH)3 in PBS on day 0 and 14. From day 25 to 34, mice were challenged with an aerosol of PBS or OA (5% in PBS) for 30 min once a day for 10 consecutive days.
Protein expression levels of were examined using Western blot analysis. Briefly, aliquots (100 μg/well) of BAL supernatant and tracheal lysate were loaded onto 4-20% SDS-PAGE gel in an equal volume. Size-fractionated proteins were transferred to nitrocellulose membrane and then blocked with 5% nonfat dried milk in TBS at room temperature for 60 min. […] Immunoreactive bands were detected by chemiluminesence. Protein expression levels were evaluated in relative to expression of β-actin in the same tissue. Quantification of Western blots for phosphorylated signaling proteins was performed using ImageJ and relative band intensity was calculated as % of the intensity of the β-actin protein band.

TSM of tracheal rings = test: TSM contractile response to CCh in OA-treated mouse model; assay type: in vivo; conditions: PBS/PBS 100±6.77, n=6
Method: as §7
Experimental animals were sacrificed by CO2 asphyxiation. Tracheas were surgically excised and cleaned of adherent connective tissue. Each trachea was sectioned into rings 3-4 mm in length and cultured in DMEM containing 1.0 M HEPES, 1.0 M NaOH, 5% of heat-inactivated FBS (Hy-Clone, Logan, Utah), 0.2M glutamine, 1.0 M CaCl2, 2.5 μg/ml fungizone, 5 μg/mL insulin, 100 U/mL penicillin and 100 μg/mL streptomycin) (DMEM-5%) for 24 hours. For in vitro experiments, the tracheal rings were cultured in DMEM in the absence and presence of either 10 or 100 nM recombinant FIZZ1 (Leinco Technologies, USA) for 24 hours. […]
as §3

BAL cells [7] = test: BAL cellular composition in OA-treated mouse model; assay type: in vivo; conditions: OA/OA-treated mice vs PBS/PBS and OA/PBS; n=6
Method: as §7, §5

FIZZ1 mRNA = FIZZ1 mRNA expression in trachea by transcriptional profiling; assay type: in vivo, mouse; conditions: OA/OA-treated mice over PBS/PBS- or OA/PBS-treated mice
Method: as §7
Three (3) groups of mice were analyzed using PBS/PBS, OA/PBS and OA/OA, with 18 animals per group. Tracheal rings from 6 animals per group were combined as replicates, to produce total RNA. […] RNA was quantified using the Nanoprop ND-1000 spectrophotometer. […] The Ovation kit utilizes the Ribo-SPIA process to linearly amplify and label, limiting amounts mRNA in a three-step process resulting in microgram quantities (Kum et al, “Novel Isothermal, Linear Nucleic Acid Amplification Systems for Highly Multiplexed Applications,” Clinical Chemistry, 2005; 51:1973-1981). Approximately 1.5 μg of purified and fragmented biotinylated cRNA, together with controls for quantitating the amount of each transcript, was hybridized to the mouse gene chip array, MOE 430—2.0 (Affymetrix) for 16-18 hours. […] Resulting signals were normalized and quantified using Gene Logic's MAS 5.0 software.

In the case of `CC(C)NCC(O)c1ccc(O)c(O)c1` (centres unmarked) [ISO, isoprenaline, reference compound], the “TSM relaxation, level relative to the relaxation by papaverine” value [1] is reported as 50%.

With “lipopolysaccharide [LPS, reference compound]” the “number of BAL cells” value (BAL cells [2]) was “obvious increase”, the “smooth muscle layers, histology” value [3] was “clear and histologically intact” and the “changes in nitrite concentration in MTEC supernatants” value [4] was “not obvious”. The “maximal responses (%) of the tracheal rings, CCh-evoked” value (shortened to “maximal responses (%)”) [5] was 96.40±4.31% and the “Maximal tensions (%) of TSM, CCh-evoked, fresh trachea” value [6] was 108.28±5.44%.

B1: heat inactivated rFIZZ1: FIZZ1 solution heated at 70° C. for 60 min (protein, UniProt Q9EP95 24-111, looked up)
Resistin-like alpha: DETIEIIVENKVKELLANPANYPSTVTKTLSCTSVKTMNRWASCPAGMTATGCACGFACGSWEIQSGDTCNCLCLLVDWTTARCCQLS
modifications: heat inactivated
notes: FIZZ1 solution heated at 70° C. for 60 min
For B1, the “maximal responses (%)” value [5] was 100.00±4.77% and the “maximal responses (%)” value ([5]; listed as Heat-inactivated FIZZ1) was “no observable effect”.

B2: ovalbumin (protein, UniProt P01012 2-386, looked up)
Ovalbumin: GSIGAASMEFCFDVFKELKVHHANENIFYCPIAIMSALAMVYLGAKDSTRTQINKVVRFDKLPGFGDSIEAQCGTSVNVHSSLRDILNQITKPNDVYSFSLASRLYAEERYPILPEYLQCVKELYRGGLEPINFQTAADQARELINSWVESQTNGIIRNVLQPSSVDSQTAMVLVNAIVFKGLWEKAFKDEDTQAMPFRVTEQESKPVQMMYQIGLFRVASMASEKMKILELPFASGTMSMLVLLPDEVSGLEQLESIINFEKLTEWTSSNVMEERKIKVYLPRMKMEEKYNLTSVLMAMGITDVFSSSANLSGISSAESLKISQAVHAAHAEINEAGREVVGSAEAGVDAASVSEEFRADHPFLFCIKHIATNAVLFFGRCVSP
notes: allergen used to sensitize and challenge mice (OA/OA, OA/PBS groups)
With B2 the “FIZZ1 protein in the BAL” value (FIZZ1 protein) was “easily detected”, the “contractile forces (%) of TSM to CCh” value (TSM of tracheal rings; OA/OA: OA-sensitized and -challenged mice) was 127.75±3.54% and the “contractile forces (%) of TSM to CCh” value (TSM of tracheal rings; OA/PBS: OA-sensitized and PBS-challenged mice) was 105.21±2.71%. The “number of lymphocytes and eosinophils in the BAL” value (BAL cells [7]) was “markedly increased”, the “number of total BAL cells” value (BAL cells [7]) was “large increase” and the “Fc in FIZZ1 mRNA expression in trachea” value (FIZZ1 mRNA) was 1000 fold.

Reference: patent US20090274696A1, “METHODS FOR TREATING INFLAMMATION” (WYETH, priority 2008, published 2009)
